From paper PMC8059062 (The Journal of Biological Chemistry, 2021)
Ends that are not written are not given here.

T1: full-length FGF12A (aa 1-243) (human, UniProt P61328-1 1-243)
T1 construct: four nonnative residues left at the N terminus after removal of the His-GST tag with 3C protease; human FGF12A (A-type splice variant of FGF12), full-length, aa 1-243; Obtained only as the FGF12A+NaV1.2CTD complex; not shown: His-GST, N-terminal, cleaved
T1 sequence: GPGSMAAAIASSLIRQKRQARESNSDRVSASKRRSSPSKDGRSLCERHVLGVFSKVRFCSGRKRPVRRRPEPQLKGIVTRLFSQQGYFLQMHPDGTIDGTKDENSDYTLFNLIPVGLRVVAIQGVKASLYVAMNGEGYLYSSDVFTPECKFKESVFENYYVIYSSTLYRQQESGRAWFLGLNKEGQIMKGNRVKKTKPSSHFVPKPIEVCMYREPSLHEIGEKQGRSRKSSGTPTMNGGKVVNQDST


How the values were obtained:
[1] = biological target: T2, calmodulin, wild type, full-length (aa 1-148) (human, UniProt P0DP23 1-149); assay: other fluorescence titration; YFP-CFP FRET biosensor (>=1 nM) with Ca2+-saturated WT or mutant CaM, emission spectra and equilibrium titrations; 50 mM HEPES, 100 mM KCl, 1 mM MgCl2, 50 uM EGTA, 5 mM NTA, 1.5 uM BSA, 500 uM DTT, 1 mM CaCl2, pH 7.4, 22 C
T2 construct: human calmodulin, full-length, aa 1-148; numbers count on: the protein without the initial Met (UniProt numbers are one higher); Ca2+-saturated ((Ca2+)4-CaM) and Ca2+-depleted (apo) states are the same molecule; the state is told by the assay; 15N-labelled in some NMR samples; also called CaM; WT CaM; source: bacterially overexpressed (pT7-7 vector) and purified; also bacterially coexpressed with …

[2] = biological target: T2, calmodulin, wild type, full-length (aa …); assay: NMR 15N-HSQC chemical shift comparison; copurified 1:1 complexes, one partner 15N-labelled (290-600 uM), compared with isolated (Ca2+)2-CaMN and (Ca2+)2-CaMC and with each other; 50 mM HEPES, 100 mM KCl, 1 mM MgCl2, 50 uM EGTA, 5 mM NTA, 10 mM CaCl2, pH 7.4, 25 C; conditions: both partners purified
[3] = biological target: T2, calmodulin, wild type, full-length (aa …); assay: not stated; (Ca2+)4-CaM binding to NaV IQ motifs; data not shown
[4] = biological target: T1, full-length FGF12A (aa 1-243); assay: co-purification after refolding; denatured His-GST-FGF12A refolded by rapid dilution at 4 C into buffer with CaM+NaV1.2CTD (0.2 uM); tag cleaved, nickel resin repass, anion exchange (pH 8.5-7.4, KCl 0-300 mM) removes CaM; conditions: both partners purified

Binder	Kd [1] [nM]	also measured
KSLCQKQLLILLSKVRLCGGRPARPDR (domain or fragment, cysteine pairing not given here; also: fused between YFP and CFP, source: expressed from a pET21B vector) [FGF11A_(CaMBD) biosensor (FGF11A CaMBD, residues 36-62, between YFP and CFP)]	19	
KTSCDKNKLNVFSRVKLFGSKKRRRR (domain or fragment, also: fused between YFP and CFP, source: expressed from a pET21B vector) [FGF13A_(CaMBD) biosensor (FGF13A CaMBD, residues 35-60, between YFP and CFP)]	13	
RSLCERHVLGVFSKVRFCSGRKRPVRR (domain or fragment, cysteine pairing not given here; also: fused between YFP and CFP, source: expressed from a pET21B vector) [FGF12A_(CaMBD) biosensor (FGF12A CaMBD, residues 38-64, between YFP and CFP)]	107	
MAAAIASSLIRQKRQARESNSDR (domain or fragment, source: expressed from a pET21B vector) [FGF12ALTP biosensor (FGF12A LTP, residues 1-23, between YFP and CFP)]	576	
FGF12ANTD (FGF12A N-terminal domain, aa 1-70) (domain or fragment, four nonnative residues left at the N terminus after removal of the His-GST tag with 3C protease; human FGF12A N-terminal domain, aa 1-70, contains LTP and CaMBD; 15N-labelled in some NMR samples; source: bacterial coexpression with CaM, copurified; not shown: His-GST, N-terminal, cleaved) GPGSMAAAIASSLIRQKRQARESNSDRVSASKRRSSPSKDGRSLCERHVLGVFSKVRFCSGRKRPVRRRPEPQL		binding result [2]: binds
EEVSAIIIQRAYRRYLLKQKVKKVSSIYKK (domain or fragment, IQ motif of NaV1.2; also called IQ motif of NaV1.2) [NaV1.2 IQ motif]		Kd [3]: 19.8 nM
NaV1.2CTD (fragment of the NaV1.2 C-terminal domain, residues 1777-1937, with EFL and IQ motif) (domain or fragment, human, four nonnative residues left at the N terminus after removal of the His-GST tag with 3C protease; human NaV1.2 (SCN2A) C-terminal domain fragment, aa 1777-1937, contains the EF-hand like domain and the IQ motif; source: bacterial coexpression with CaM, copurified; not shown: His-GST, N-terminal, cleaved) GPGSENFSVATEESAEPLSEDDFEMFYEVWEKFDPDATQFIEFAKLSDFADALDPPLLIAKPNKVQLIAMDLPMVSGDRIHCLDILFAFTKRVLGESGEMDALRIQMEERFMASNPSKVSYEPITTTLKRKQEEVSAIIIQRAYRRYLLKQKVKKVSSIYKKDKG		binding result [4]: binds
